Positions of bridges follow the written chain, without caps; N, C: chain ends. Non-standard residues stand in square brackets, D forms with d. Trp(1-Me) = Cn1cc(C[C@H](N)C(=O)O)c2ccccc21; NMeI = CC[C@H](C)[C@H](NC)C(=O)O; Sar = CNCC(=O)O
Target: C3b C3b (Homo sapiens, UniProt P01024)
Experiment: SPR

C3b C3b, sequence (P01024 566-670): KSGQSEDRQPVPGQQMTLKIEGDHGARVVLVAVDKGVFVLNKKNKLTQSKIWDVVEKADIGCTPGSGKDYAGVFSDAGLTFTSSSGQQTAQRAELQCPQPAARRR

Kd: 2.3 nM
B1: compstatin analogue 21 (peptide)
chain: Ac-ICV[Trp(1-Me)]QDW[Sar]AHRC[NMeI]-NH2
modifications: disulfide 2-12
SMILES: CC[C@H](C)[C@H](NC(C)=O)C(=O)N[C@H]1CSSC[C@@H](C(=O)N(C)[C@H](C(N)=O)[C@@H](C)CC)NC(=O)[C@H](CCCNC(=N)N)NC(=O)[C@H](Cc2c[nH]cn2)NC(=O)[C@H](C)NC(=O)CN(C)C(=O)[C@H](Cc2c[nH]c3ccccc23)NC(=O)[C@H](CC(=O)O)NC(=O)[C@H](CCC(N)=O)NC(=O)[C@H](Cc2cn(C)c3ccccc23)NC(=O)[C@H](C(C)C)NC1=O
